{"source": "the DeepSol protein solubility set", "data": [{"test": "soluble on expression in E. coli; label from the status in PepcDB or PDB records", "values": [{"sequence": "MSLSNGAPGTRIASAVGAFDVSRRASLTRGAGEAVERFALVPVPADSEHLLARNGSADPQIDFVSAGLGHVSALACDVPWYRAVDLLTGKPTQVPAPVVDYTPGRGESNSWDAFFDPSPNGAASGPSEAFAQTSAIAEVMERDAFLAAWRHKIPLQKFDAKSMPVAVRQGAEARGLSLLLVAARAAGVEPTLAFIPNNGSPLLTAVCIITEEKGPVCYGAVGLKAASDPVSALKGALQEGLQIRELFLTRAHSADPASASPVSAPSVATVTDDDSRAHFWTTAPAIAELRRWVGSFQPSNFPSKQPEPDLDALVKHLAGRNVRSHWVNLTHRLPAAIRELGWVAGKAVCPGAVPLTMDETKELFVMPGSEGHHHHHH", "soluble on expression in E. coli": "soluble"}, {"sequence": "MGSAVIRVLSYNIRSMRDDTAALARVISACEPDLVLVQEAPRFFRWRKKLAPLASACGQVVLSGGATAAGPALLCSLRATVERTEDVLLPLTPGLHRRGFATAVVRFGRARLGVLSCHLSLQKNERYEQGGMLLDHLARLGTPHAIAGGDLNERPDGRTFKRLASELRDCWATAPWGAEYTSTPADPHQRIDAILATPGIEVLACGVPLGHPGVTEADLRAATDHLPVLAALRVPASLEHHHHHH", "soluble on expression in E. coli": "not soluble"}, {"sequence": "MGSSHHHHHHSSGLVPRGSHMAAMMSLNDFLSSVLPVSEQFEYLSLQSIPLETHAVVTPNKDDKRVPKSTIKTQHFFSLFHQGKVFFSLEVYVYVTLWDEADAERLIFVSKADTNGYCNTRVSVRDITKIILEFILSIDPNYYLQKVKPAIRSYKKISPELISAASTPARTLRILARRLKQSGSTVLKEIESPRFQQDLYLSFTCPREILTKICLFTRPASQYLFPDSSKNSKKHILNGEELMKWWGFILDRLLIECFQNDTQAKLRIPGEDPARVRSYLRGMKYPLWQVGDIFTSKENSLAVYNIPLFPDDPKARFIHQLAEEDRLLKVSLSSFWIELQERQEFKLSVTSSVMGISGYSLATPSLFPSSADVIVPKSRKQFRAIKKYITGEEYDTEEGAIEAFTNIRDFLLLRMATNLQSLTGKREHRERNQPVPASNINTLAITMLKPRKKAKALPKT", "soluble on expression in E. coli": "soluble"}, {"sequence": "MLRSFTIRTAKRDEMIDITSFVEETVRQANVTEGIAVVYCPHTTAGITINENADPDVKRDMMRRFDETYPWEHPLDRHMEGNTAAHMKASTVGASQHVIIHEGRLLLGRWQGVYFCEYDGPRHRTFYVKVIGG", "soluble on expression in E. coli": "not soluble"}, {"sequence": "MGSDKIHHHHHHMTGRRCERTTSPGTGGRLRAEPADFQVQEVPAYLPGGSGEYLYLHVEKTRHTTAHVVRELCAQLGVRDRDVGVAGLKDRHAVTTQWLSLPAKVEPRMGDFSLPGVRILETSRHTNKLGMGHLHGNRFVVRVRGAAGMAEQAGETLATLAQGGVPNYFGPQRFGLGGLNAEEGLRVLRGESELRDPRVRRFLTSSVQSAIFNALVSLRLEREVFDRLLTGDMAKKHDTGGVFLVEDAGAETPRAQRGEVSATGTLFGRKVKPLTADAGALEAEALALFGLSPQVFASRKGDRRLIRVFPAEAEVRPEDDGYVLAFTLPKGSFATSVLREVMKTEVDAPGAGPDTTDEGEAGDGE", "soluble on expression in E. coli": "not soluble"}, {"sequence": "MGSDKIHHHHHHMEHLLHYVWKHKLFPLKILQTTKGLLVEIIDSGLQNPDAGPDFFNAKLKIDGTLWVGNIEIHTHSSDWYRHGHDHDKTYDSVILHVVAEADAEVTRSNGEQIPQLLLTCPENVQTHYHELCIADQYPACYSIIGSLSKLTIHSWLTALQTERLEQKARQIADRLERCDRHWEDAFFITLARNFGFGLNGDAFETWAGLLPFRAIDKHRNDLFQIEAFFFGQAGLLEEAFLKKEQEDEYSLRLRKEFRYLQRKFELNQVMDAGLWRFLRLRPENFPHIRLAQLAYLYQKVDKLFSQMMEAETLPEVRQLLSTHASAYWDNHYIFGRPSPQREKSMGEKSQDLIVINTVVPFLYAYGLHRTDERMCDRAGRFLEELKAENNHIIRSWGDAGLPVGSAADSQALIQLRKEYCDKRKCLFCRFGYEYLRKK", "soluble on expression in E. coli": "not soluble"}, {"sequence": "MGSDKIHHHHHHMKNIFVFGADEFNLSLMRSLDSAHEYCFHELYQYSEVKTGKEFPVETLYEGALARLNSYPDSVDAIVGYLDFPVSTMLPLLCQSLGLPSPSFEAVLKCEHKYWSRLEQRRVIPEYIPNFCSVDPFKDDYRQQITLDYPFWLKPVKAVLSHLGFMVRDDSELEMAIIEIRKKIYCFAKPFNYLLQFADLPDEIAAVDGYHCIAEGIISHGQQCTLEGYVFDGKLCVYGTVDSIREGEHGSSFSRYQYPSSIPQPIQDKMIAVTERFLTAIDFDNGPFNIEYYWDKDSDHIWLLEINTRISKSHSPLFRNVDGKSHHQIMLDLALGKQPIFPHRKGLYRYSAKFMWRTHADAQVNRVPTEQEIQAITQRIGGTDIQLHVREGMRLSDLNYQDSYSYEIATVFIGGDSEQELLQKYHDVQQALPLELVPLL", "soluble on expression in E. coli": "not soluble"}, {"sequence": "MSLKTYKGYLIDLDGTMYNGTEKIEEACEFVRTLKDRGVPYLFVTNNSSRTPKQVADKLVSFDIPATEEQVFTTSMATAQHIAQQKKDASVYVIGEEGIRQAIEENGLTFGGENADFVVVGIDRSITYEKFAVGCLAIRNGARFISTNGDIAIPTERGLLPGNGSLTSVLTVSTGVQPVFIGKPESIIMEQAMRVLGTDVSETLMVGDNYATDIMAGINAGMDTLLVHTGVTKREHMTDDMEKPTHAIDSLTEWIPYIEGHHHHHH", "soluble on expression in E. coli": "soluble"}, {"sequence": "MGHHHHHHSHMANSAGSMANSAGSMFDGISLTEHQRQQMRDLMQQARHEQPPVNVSELETMHRLVTAENFDENAVRAQAEKMANEQIARQVEMAKVRNQMYRLLTPEQQAVLNEKHQQRMEQLRDVTQWQKSSSLKLLSSSNSRSQ", "soluble on expression in E. coli": "not soluble"}, {"sequence": "MSLGAYLSQPNTVKCSGDGVGAPRLPLPYGFSAMQGWRVSMEDAHNCIPELDSETAMFSVYDGHGGEEVALYCAKYLPDIIKDQKAYKEGKLQKALEDAFLAIDAKLTTEEVIKELAQIAGRPGMEGKEEPGSDSGTTAVVALIRGKQLIVANAGDSRCVVSEAGKALDMSYDHKPEDEVELARIKNAGGKVTMDGRVNGGLNLSRAIGDHFYKRNKNLPPEEQMISALPDIKVLTLTDDHEFMVIACDGIWNVMSSQEVVDFIQSKISQRDENGELRLLSSIVEELLDQCLAPDTSGDGTGCDNMTCIIICFKPRNTAELQPESGKRKLEEVLSTEGAEEEGHHHHHH", "soluble on expression in E. coli": "soluble"}, {"sequence": "MAHHHHHHMTFPSVQSSVHLYSNVVELAIRYTDLCAFCGRKAHEGENGSTKGDRAETSGSWHFHLARSKEPIAVSCLHAIMQRTNILGGRVNLFFTFERVPPFGGHKSRAVIQLASFHYSKNMRLCLNVAYLPQEEVRLKTVRAHVDSDCNVLEVACWRVFVFLGRST", "soluble on expression in E. coli": "not soluble"}, {"sequence": "MIGMVNVQCDTPLDYYATAPNLLSRDTSVRKRGDSESANASRHNSTKRTPSWRPLFTGQGKKKSSKPKYLQDGRKMTEDGHDEPNKLWEELFLRSFAHKIEQEISSPSPLEAHKNLNSELSKLNIQDKSFYRSTYSLVSPTRIENTDFEELERIENQEKTQDDSKPNRSNSSTERPSSQICSVFLPFIKTIKGNKKKNSITSVNNNTKNS", "soluble on expression in E. coli": "not soluble"}, {"sequence": "MKTGYVLKGRVIDGTLGPALEQGAVVTEGERIAWVGPQSGLPAQYAGDRHTVVDLPGRTIMPGLIDAHTHISFGESRSEEENALYTPVEFRTAKALWYARKVLQAGVTSAFDAATSYNIAQAVRDAIDTGMFEGPRFTVSGKQLTNHHGLEDSFPNEMAFPPGQSAVLVKTREDLVEAIHYQVKDEVDAIKVSGSNDNLITPDALGSSAFTYEEFKIIADETHRLGRLCSVHARSRDAALYAAQAGFDNLFHASYIDDEGIEACLKNGCVITPTLTLLVNLVEAKQSHAGASSAQAFRQEIEAASVNLRRAYDAGVPLLAGSESGWSPVPYGHWHAREMEIFVKLLGLTPLQAIHANTLACTRLLARHGHEVGKLEASRLADVLVLPGNPLEDITLLQRPSRFDYIFKGGTPVDRTAPAPRVRKWYERTKIFLAGVYEYDQENACGRLVQ", "soluble on expression in E. coli": "not soluble"}, {"sequence": "MTKRHVSLPADAKDVRRAFVSGVDERLSAAETPDELATAVTGTLADLRGERDAYEAWRDGDDVRPAAAARLATLDPRNASLESEYYAEKDEAAFARSKPLQWLWRQFDTTPLADNVDVALPFRRMLAGHLFAGVGEDVRLFKGITMTYGHNIELGDNAVVHDGVHLDDRGELVVGARASVSNGAHLYTHDHDVVDQTDVTNYRTEIGADARVTQGALVRAGVRVGENALVGSRSVVQGDVPAHHIAVGSPAESVRVKPGWEAVAAPLDAGLEHHHHHH", "soluble on expression in E. coli": "soluble"}, {"sequence": "MIPRKEMAAVSTEMTMAEMLEVMLKEKYTRWPVTDGDKDSVLGLVNTKHLFSDLLFMTEEERMKMTIHPYVRPVIEVIETIPVHDLLIKMQRERIHMAILSDEYGGTSGLVTTEDILEEIVGEIR", "soluble on expression in E. coli": "not soluble"}, {"sequence": "MTLLPHLATRLFGVPLAIDRPKLDVILSVLGPRVGLAGLAPPGDYTPPERNPVRGHAQIAVIPIHGTLVRRTVGLEAESGLASYTAIGEQLDAALADPGIAAILLDVDSPGGESGGVFDLADRIRVAAAIKPVWAAANDMAFSAAYALACAASRVFVSRTGGVGSIGVIAMHVDQSVKDAKDGVRYTAVFAGARKNDLNPHEPITDEAQAQLQAEVSRIYRLFVATVGSYRGLSAEAVTATEAGLFFGQDAVAAGLADAVGTFDDALAQLTASLSVPAPVASARTPSLNLQMDCSMNTQPDPAAVSVPAADAIGTTAQPPVVASPPAASVASHTDAVEIAQLCTLAGRTDLIAGFLEARATPERVRSQLLAARAEASPEIASRIDPHAQAVSADASHPASPRNPLLQAVKKRLGIQLEHHHHHH", "soluble on expression in E. coli": "soluble"}, {"sequence": "GMGMEHKTYEADLFVWCQQQADGLRALSRSRRDLPDDLDLEHIAEEIEDMGRSELREATSLVRQICVRVIMAMSAPEAPDRARWRSEVVSWHNLLLDTITPGMIDRIDIGVIWRRAVSEAKAALIEINVAPQAGLSFQAPLPADHFLDEDFDYDATVARLGPTA", "soluble on expression in E. coli": "soluble"}, {"sequence": "MTHTVHLHLEETDNLALQRLCGSFDNNLDLLAKALDIHISRRFEHFTFNGAFAHAGKRALLKLLETAQTRDLNDGDIRLAAVEAQTEDAGHQEKNHDHAYYFRTKRGSIGGRTPRQNGYIRALLNHDIVFGLGPAGTGKTYLAVAAAVDAMEKHQVERIILVRPAVEAGEKLGFLPGDLTQKVDPYLRPLYDALYDLMGFDRVTKLIEKGLIEIAPLAYMRGRTLNGAYIILDEAQNTTPEQMKMFLTRIGFGAKAVITGDTSQIDLPKNIKSGLKDAREKLHNVEGLYFHTFTGEDVVRHPLVQKIVEAYESAEHD", "soluble on expression in E. coli": "not soluble"}, {"sequence": "MDRFKVVVTDYEFQTLAPEQEVLSSLNVEFVATQCRTEEEVISACRDADAIINQYAPISAEVIAQLEKCKIISRYGVGVNTVDVDAATEKGIIVANVTDYSIDEVSDHALALLLSLARKIVKLNHEVKSGTWNFNVGKPIYRLRGRTLGLVGLGRIPQALAKKAQAFGLRVIAYDPYVPAKVADELNVQLLGLNDVFRQSDYISVHAPLTKETKGMISDEQFNLAKKELIIVNTARGPVIDESALIRALQEGKISGAGLDVTECEPIQPDNPLLKMENVVITPHVAWYSEESEKELKRKTAQNVADVLSGYYPTYLVNHNVKEKMRLKEKGLYV", "soluble on expression in E. coli": "soluble"}, {"sequence": "MRIMGLDVGSKTVGVAISDPLGFTAQGLEIIKIDEEKAEFGFTRLEELVKQYQVEQFVIGLPKNMNNTNGPRVDASITYGNHIEHLFGLPVHYQDERLTTVEAERMLIEQADISRGKRKKVIDKLAAQLILQNYLNRNFLEHHHHH", "soluble on expression in E. coli": "soluble"}]}]}
